From patent US20250333481A1

Molecular target: chimeric receptor consisting of extracellular domain of BDNF receptor TrkB and transmembrane domain and cytoplasmic domain of thrombopoietin receptor c-Mpl
Test: cell-based or functional assay

- EC50, cell proliferation of BaF/TrkB·c-Mpl chimera cells (MTS, absorbance at 490 nM): 1.19 nM
Substance: recombinant wild-type hBDNF (Abcam) (from UniProt P23560 129-247) (ligand)
